Experimental findings from paper PMC5943514, “Substrate specificity of human MCPIP1 endoribonuclease” (Scientific Reports, 2018) are described below.

Values joined by “and” are separate entries in the source; they are usually repeats but may differ in a detail not shown here. Equal values may be shown once.

Series [1] concerns the target T1, PIN D141N (Homo sapiens, UniProt Q5D1E8 134-297, D141N).
T1 sequence: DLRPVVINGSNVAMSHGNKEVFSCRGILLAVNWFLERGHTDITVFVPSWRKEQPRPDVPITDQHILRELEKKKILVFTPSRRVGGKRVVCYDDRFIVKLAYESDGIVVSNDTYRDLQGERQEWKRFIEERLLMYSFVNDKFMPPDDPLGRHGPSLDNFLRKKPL
The series can be described thus: fluorescence intensity titration; 2.5 mM Mg2+; 25 mM Tris-HCl pH 7.9, 150 mM NaCl, 5% glycerol, 2.5 mM MgCl2, 1 mM DTT, 0.5 mM EDTA, 0.05 mM ZnCl2, 25 C; oligo 2 nM (full length) or 20 nM (PIN, PIN-ZF). The following applies: protein: recombinant, tags: N-terminal His6, chain copies: 2.

The target in series [2] is T2, MCPIP1 D141N (Regnase-1), full length (Homo sapiens, UniProt Q5D1E8 1-599, D141N).
T2 sequence: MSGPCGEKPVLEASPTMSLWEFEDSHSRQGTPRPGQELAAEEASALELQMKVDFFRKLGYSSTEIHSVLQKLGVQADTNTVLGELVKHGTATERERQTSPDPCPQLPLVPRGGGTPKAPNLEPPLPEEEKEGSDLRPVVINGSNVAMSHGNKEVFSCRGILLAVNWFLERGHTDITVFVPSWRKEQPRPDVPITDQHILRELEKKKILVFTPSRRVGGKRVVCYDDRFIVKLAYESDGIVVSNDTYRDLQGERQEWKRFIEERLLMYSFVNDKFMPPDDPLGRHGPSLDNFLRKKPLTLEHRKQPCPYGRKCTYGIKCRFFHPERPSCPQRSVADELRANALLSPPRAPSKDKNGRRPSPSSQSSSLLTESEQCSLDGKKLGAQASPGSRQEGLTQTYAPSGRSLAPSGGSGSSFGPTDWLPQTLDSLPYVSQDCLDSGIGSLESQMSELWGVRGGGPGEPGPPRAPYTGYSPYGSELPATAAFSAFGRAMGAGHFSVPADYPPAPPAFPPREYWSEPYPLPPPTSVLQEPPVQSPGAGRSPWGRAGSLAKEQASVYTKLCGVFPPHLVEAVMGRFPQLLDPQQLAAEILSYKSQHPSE
The description is as above. The conditions noted are these: protein: recombinant, tags: none stated (purified by ion exchange), chain copies: 2.

In series [3] the target is T3, PIN-ZF D141N (Homo sapiens, UniProt Q5D1E8 134-327, D141N).
T3 sequence: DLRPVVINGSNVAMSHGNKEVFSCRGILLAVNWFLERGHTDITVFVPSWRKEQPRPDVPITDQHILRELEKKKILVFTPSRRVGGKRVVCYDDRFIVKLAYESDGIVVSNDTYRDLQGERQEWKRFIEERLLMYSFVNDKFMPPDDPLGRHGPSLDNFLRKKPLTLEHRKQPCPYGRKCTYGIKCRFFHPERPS
Described as above. The conditions noted are these: protein: recombinant, tags: N-terminal His6, chain copies: 2.

Series [4] concerns the target T1, PIN D141N. Description: fluorescence intensity titration; 2.5 mM Mg2+; 20 nM oligo; sequential 2:1 model; 25 mM Tris-HCl pH 7.9, 150 mM NaCl, 5% glycerol, 2.5 mM MgCl2, 1 mM DTT, 0.5 mM EDTA, 0.05 mM ZnCl2, 25 C; oligo 2 nM (full length) or 20 nM (PIN, PIN-ZF). The following applies: protein: recombinant; tags: N-terminal His6; chain copies: 2; label: 5' 6-FAM; hairpin.

Series [5] concerns the target T3, PIN-ZF D141N. Described as above. The following applies: protein: recombinant; tags: N-terminal His6; chain copies: 2; label: 5' 6-FAM; hairpin.
Series [6] concerns the molecule itself. Description: SEC; analytical Superdex 200 Increase 10/300 GL calibrated with protein standards; 25 mM Tris pH 7.9, 300 mM NaCl, 10% glycerol, 1 mM DTT, 0.5 mM EDTA, also with 1.6 M urea; apparent molecular weight from the calibration curve, multiple Gaussian peak fit. Background: SEC sorts molecules by how far they enter the pores of the column.
The mark [7] stands for this setting: label: 5' 6-FAM on strand 1, blunt, strands mixed 1:1.2.

B1: hIL-6 82-99 (structured_RNA)
RNA: UGUUCUCUAUGGAGAACU
In the case of B1, the Kd (in general, the concentration at which binding is half-saturated) came to 15.1 ± 4.5 nM in the series with PIN D141N [1] (label: 5' 6-FAM, hairpin); 4.1 ± 3.6 nM in series [2] (label: 5' 6-FAM, hairpin); 13.2 ± 6.8 nM in the series with PIN-ZF D141N [3] (label: 5' 6-FAM, hairpin).

B2: consensus stem-loop (structured_RNA)
RNA: UGGAAAGUAUCUUUCCU
Regarding B2, the Kd in the series with PIN D141N [1] (label: 5' 6-FAM, hairpin) turned out to be 36 ± 17 nM; in series [2] (label: 5' 6-FAM, hairpin), 3.8 ± 2.8 nM; with PIN-ZF D141N [3] (label: 5' 6-FAM, hairpin), 9.1 ± 3.2 nM.

B3: poly-U 12 nt (ssRNA)
RNA: UUUUUUUUUUUU
Consider B3, for which the Kd is 39 ± 11 nM in the series with PIN D141N [1] (label: 5' 6-FAM), 14.8 ± 7.2 nM in series [2] (label: 5' 6-FAM) and 43 ± 23 nM with PIN-ZF D141N [3] (label: 5' 6-FAM).

B4: mIL-6 82-93 ssRNA (ssRNA)
RNA: UGUUGUUCUCUA
As to B4, the Kd with PIN D141N [1] (label: 5' 6-FAM, unstructured) amounted to 41 ± 12 nM; in series [2] (label: 5' 6-FAM, unstructured) it was 19 ± 11 nM; in the series with PIN-ZF D141N [3] (label: 5' 6-FAM, unstructured), 34 ± 18 nM.

B5: mIL-6 85-101 short stem (structured_RNA)
RNA: UGUUCUCUACGAAGAAC
For the molecule B5, the Kd in the series with PIN D141N [1] (label: 5' 6-FAM, hairpin) is 20.7 ± 7.2 nM; in series [2] (label: 5' 6-FAM, hairpin), 9.2 ± 4 nM; in the series with PIN-ZF D141N [3] (label: 5' 6-FAM, hairpin) it was 20 ± 10 nM.

B6: mIL-6 82-93 ssDNA (ssDNA)
DNA: TGTTGTTCTCTA
In the case of B6, the Kd came out at 21.7 ± 6.6 nM with PIN D141N [1] (label: 5' 6-FAM), 18.3 ± 8.2 nM in series [2] (label: 5' 6-FAM) and 36 ± 20 nM in the series with PIN-ZF D141N [3] (label: 5' 6-FAM).

B7: mIL-6 82-106 3'FAM (structured_RNA)
RNA: UGUUGUUCUCUACGAAGAACUGACA
As to B7, the Kd in the series with PIN D141N [1] (label: 3' 6-FAM, hairpin) amounted to 21.8 ± 6.3 nM; in series [2] (label: 3' 6-FAM, hairpin), 8.6 ± 2.6 nM; in the series with PIN-ZF D141N [3] (label: 3' 6-FAM, hairpin) it was 4.8 ± 1.8 nM.

B8: mIL-6 82-106 5'FAM (structured_RNA)
RNA: UGUUGUUCUCUACGAAGAACUGACA
As for B8, the dissociation constant (Kd) in the series with PIN D141N [4] is 24.1 ± 7.3 nM; in the series with PIN-ZF D141N [5], 6.6 ± 3.1 nM.

B9: mIL-6 82-88 ssRNA (ssRNA)
RNA: UGUUGUU
Consider B9, for which the Kd with PIN D141N [1] (label: 5' 6-FAM, unstructured) was determined as 40 ± 12 nM; in series [2] (label: 5' 6-FAM, unstructured), 14.5 ± 8.1 nM; with PIN-ZF D141N [3] (label: 5' 6-FAM, unstructured), 32 ± 20 nM.

B10: mIL-6 82-93 dsDNA (dsDNA)
DNA 1: TGTTGTTCTCTA
DNA 2: TAGAGAACAACA
For B10, the Kd with PIN D141N [1] (setting [7]) came to 56 ± 17 nM; in series [2] (setting [7]) it was 118 ± 49 nM; in the series with PIN-ZF D141N [3] (setting [7]), 80 ± 30 nM.

B11: MCPIP1WT (Monocyte Chemoattractant Protein-1-Induced Protein 1), full-length (enzyme, human, UniProt Q5D1E8 1-599, looked up)
chain: MSGPCGEKPVLEASPTMSLWEFEDSHSRQGTPRPGQELAAEEASALELQMKVDFFRKLGYSSTEIHSVLQKLGVQADTNTVLGELVKHGTATERERQTSPDPCPQLPLVPRGGGTPKAPNLEPPLPEEEKEGSDLRPVVIDGSNVAMSHGNKEVFSCRGILLAVNWFLERGHTDITVFVPSWRKEQPRPDVPITDQHILRELEKKKILVFTPSRRVGGKRVVCYDDRFIVKLAYESDGIVVSNDTYRDLQGERQEWKRFIEERLLMYSFVNDKFMPPDDPLGRHGPSLDNFLRKKPLTLEHRKQPCPYGRKCTYGIKCRFFHPERPSCPQRSVADELRANALLSPPRAPSKDKNGRRPSPSSQSSSLLTESEQCSLDGKKLGAQASPGSRQEGLTQTYAPSGRSLAPSGGSGSSFGPTDWLPQTLDSLPYVSQDCLDSGIGSLESQMSELWGVRGGGPGEPGPPRAPYTGYSPYGSELPATAAFSAFGRAMGAGHFSVPADYPPAPPAFPPREYWSEPYPLPPPTSVLQEPPVQSPGAGRSPWGRAGSLAKEQASVYTKLCGVFPPHLVEAVMGRFPQLLDPQQLAAEILSYKSQHPSE
notes: human MCPIP1 encoded by ZC3H12A (synthetic gene optimised for E. coli, GenScript), full length, 1-599 aa; printed molecular weight 65.7 kDa; no tag is stated for the full-length protein; In solution a mixture of tetramer, dimer and monomer; also called Regnase-1; Regnase1; source: E. coli BL21-CodonPlus-RIL, purified (TMAE ion exchange in denaturing conditions, dialysis, Superdex 200 gel …)
Turning to B11, the stoichiometry N (as a rule, a count of units in the complex or per binding partner) in series [6] was 4 and 2.

B12: MCPIP1_(D141N), full-length (enzyme, human, UniProt Q5D1E8 1-599, looked up)
chain: MSGPCGEKPVLEASPTMSLWEFEDSHSRQGTPRPGQELAAEEASALELQMKVDFFRKLGYSSTEIHSVLQKLGVQADTNTVLGELVKHGTATERERQTSPDPCPQLPLVPRGGGTPKAPNLEPPLPEEEKEGSDLRPVVINGSNVAMSHGNKEVFSCRGILLAVNWFLERGHTDITVFVPSWRKEQPRPDVPITDQHILRELEKKKILVFTPSRRVGGKRVVCYDDRFIVKLAYESDGIVVSNDTYRDLQGERQEWKRFIEERLLMYSFVNDKFMPPDDPLGRHGPSLDNFLRKKPLTLEHRKQPCPYGRKCTYGIKCRFFHPERPSCPQRSVADELRANALLSPPRAPSKDKNGRRPSPSSQSSSLLTESEQCSLDGKKLGAQASPGSRQEGLTQTYAPSGRSLAPSGGSGSSFGPTDWLPQTLDSLPYVSQDCLDSGIGSLESQMSELWGVRGGGPGEPGPPRAPYTGYSPYGSELPATAAFSAFGRAMGAGHFSVPADYPPAPPAFPPREYWSEPYPLPPPTSVLQEPPVQSPGAGRSPWGRAGSLAKEQASVYTKLCGVFPPHLVEAVMGRFPQLLDPQQLAAEILSYKSQHPSE
notes: human MCPIP1 encoded by ZC3H12A, full length, 1-599 aa, catalytic site mutant D141N; no tag is stated for the full-length protein; also called MCPIP_(D141N); source: E. coli BL21-CodonPlus-RIL, purified (TMAE ion exchange in denaturing conditions, dialysis, Superdex 200 gel filtration)
B12: the “stoichiometry N” value in series [6] was 2 and 4.

B13: mIL-6 82-106 RS (reverse stem) (structured_RNA)
RNA: ACAGUCAAGACUACGAUCUUGUUGU
As for B13, the dissociation constant Kd with PIN D141N [1] (label: 5' 6-FAM, hairpin) is 39.3 ± 8.6 nM; in series [2] (label: 5' 6-FAM, hairpin), 9.8 ± 2.3 nM; in the series with PIN-ZF D141N [3] (label: 5' 6-FAM, hairpin), 15.1 ± 7.3 nM.

B14: mIL-6 82-106 YR (structured_RNA)
RNA: UGUUGUACACUACGAUGUACUGACA
Take B14: the Kd with PIN D141N [1] (label: 5' 6-FAM, hairpin) was found to be 25.1 ± 7 nM; in series [2] (label: 5' 6-FAM, hairpin), 9.5 ± 5.2 nM; in the series with PIN-ZF D141N [3] (label: 5' 6-FAM, hairpin), 14.4 ± 9.6 nM.
